One block for each molecule: values may come before it.
What was measured:
[1] = system: C-terminal region of human MERMUC (bait-2, bait-3); experiment: Yeast two hybrid screening of human kidney cDNA library with MERMUC baits; assay type: binding; conditions: for binding ability to the protein derived from bait-2: bait-2 = 123 amino acid portion of the C-terminus of human MERMUC; for binding ability to the protein derived from bait-3: bait-3 = 65 C-terminal amino acids of human MERMUC
Procedure: Specifically, yeast two hybrid system (Proc. Natl. Acad. Sci. USA., 1991, Vol.88, p.9578-9582) was performed to screen a human kidney cDNA library using cDNA corresponding to the C-terminal region of the human MERMUC as the bait (that is, fishing bait).
Two kinds of bait (bait-2 and bait-3) were designed using each of Ex.-2 and Ex.-3 as the core. Bait-2 corresponds to a 123 amino acid portion of the C-terminus (bait-2) and bait-3 corresponds to the 65 C-terminal amino acids (bait-3).
Each bait vector was obtained by inserting each DNA fragment obtained by digesting each of the PCR products with the restriction enzymes EcoRI and SalI into the EcoRI/SalI site of pGBKT7 vector (leucine biosynthesis gene as a marker; CLONTECH). In yeast, the gene within the vector is produced as a fusion protein ([fusion protein A]) with the DNA binding region (GAL4-DB) of the yeast transcription factor GAL4.
On the other hand, each cDNA of the human kidney derived cDNA library (CLONTECH) that is used for the screening with the bait vector is inserted in pADK vector (tryptophan biosynthesis gene as a marker). Therefore, proteins produced through the expression of each of these cDNAs in yeast are produced as a fusion protein ([fusion protein B]) with the GAL4 transcriptional activation region (GAL4-AD).
AH109 strain (leucine, tryptophan, histidine and adenine auxotrophic yeast; CLONTECH) was used as the yeast host. This yeast strain contains 3 types of genes (histidine biosynthesis gene, adenine biosynthesis gene and β-galactosidase gene) under the control of the GAL promoter on the chromosome.
The function as a transcription factor is recovered through the fusion of GAL4-DB and GAL4-AD by the binding of the bait protein (the fusion protein A) with the prey protein (the fusion protein B).
Each bait vector was introduced into yeast AH109 strain with the cDNA library plasmid mentioned above (50,000 clones per pool) by the polyethylene glycol/lithium acetate method for screening (J. Bacteriol., 1983, Vol. 153, p.163-16883; Curr. Genet., 1989, Vol. 16, p. 339-346; Nucleic Acids Res., 1991, Vol. 19, p. 5791; Nucleic Acids Res., 1992, Vol. 20, p.1425).
The marker for the first selection of yeast with the desired transformation in the present screening was acquired histidine non-requirement due to the expression of the histidine biosynthesis gene. Therefore, after introducing the plasmid, yeast was cultured for 5 days at 30° C. in yeast minimum medium that lacks leucine, tryptophan and histidine (SD/-Leu,-Trp,-His) used for selecting transformants.
Transformed yeast that grew on the plate upon cultivation were picked with toothpick and seeded on 3 kinds of plates described below, and then cultured for 5 days at 30° C. for a second selection of the desired clones: • <A> plate containing yeast minimum medium lacking leucine, tryptophan and histidine (SD/-Leu, -Trp, -His); • <B> plate containing yeast minimum medium lacking leucine, tryptophan and adenine (SD/-Leu, -Trp, -Ade); and • <C> plate containing yeast minimum medium lacking leucine and tryptophan, and supplemented with α-X-gal (20 ug/ml) (SD/-Leu, -Trp, +X-gal).
Positive clones were identified as colonies growing on both of the above-mentioned <A> and <B> plates (acquirement of histidine and adenine non-requirement) and showing blue color on plate <C> (α-X-gal addition) (expression of β-galactosidase activity). Four prey cDNA clones (clones No. 3-309, No. 3-312, No. 2-22 and No. 2-211) were selected as positive.

[2] = molecular target: T1, HGF receptor c-Met β chain (Homo sapiens, UniProt P08581); experiment: Yeast two-hybrid binding of MERMUC bait proteins to c-Met prey (C-terminal 91 amino acids); conditions: prey clone No. 3-309 (C-terminal 91 amino acids of human c-Met)
T1 construct: expressed in transfected cells; host or cells: yeast AH109 strain (library prey plasmid, human kidney cDNA library, CLONTECH)
Procedure: The present examination was performed using the previously reported yeast two-hybrid system (references are described above) according to conventional method and the experimental protocols provided with the reagents. […]
The binding ability of MERMUC bait protein derived from each of the bait vectors to the HGF receptor c-Met β chain was analyzed by the yeast two-hybrid system described above. […]
Each of the bait vectors was cointroduced into yeast AH109 strain with human HGF receptor c-Met prey vector (comprising DNA encoding the C-terminal 91 amino acids of the c-Met; Example 1). The binding ability of each of the bait proteins (randomly selected 10 amino acids of the human MERMUC C-terminal region) to the C-terminal region of human c-Met β chain was analyzed by the yeast two-hybrid system similar to the aforementioned Example.

binding ability to the protein derived from bait-2 [1]: had binding ability
binding ability to the protein derived from bait-3 [1]: had binding ability
B1: clone No. 3-312: prey protein: C-terminal 89 amino acids (amino acids 995-1083 of SEQ ID NO: 4) of the human c-Met β chain (protein, listed as Homo sapiens)
chain: LLQPEYCPDPLYEVMLKCWHPKAEMRPSFSELVSRISAIFSTFIGEHYVHVNATYVNVKCVAPYPSLLSSEDNADDEVDTRPASFWETS

binding ability to the protein derived from bait-2 [1]: had binding ability
binding ability to the protein derived from bait-3 [1]: had binding ability
B4: clone No. 3-309: prey protein: C-terminal 91 amino acids (amino acids 993-1083 of SEQ ID NO: 4) of the human c-Met β chain (protein, listed as Homo sapiens)
chain: RRLLQPEYCPDPLYEVMLKCWHPKAEMRPSFSELVSRISAIFSTFIGEHYVHVNATYVNVKCVAPYPSLLSSEDNADDEVDTRPASFWETS

Continued, molecule first:

B2: C260: MERMUC bait protein, C-terminal 260 amino acids of cytoplasmic region; amino acids 244-503 of SEQ ID NO: 10 (protein, listed as Homo sapiens)
chain: VKASSTSDPPALPDSTEAKPHITEVTASAETLSTAGTTESAAPHATVGTPLPTNSATEREVTAPGATTLSGALVTVSRNPLEETSALSVETPSYVKVSGAAPVSIEAGSAVGKTTSFAGSSASSYSPSEAALKNFTPSETPTMDIATKGPFPTSRDPLPSVPPTTTNSSRGTNSTLAKITTSAKTTMKPPTATPTTARTRPTTDVSAGENGGFLLLRLSVASPEDLTDPRVAERLMQQLHRELHAHAPHFQVSLLRVRRG
binding activity to the HGF receptor c-Met β chain [2]: possessed the binding activity

B3: C260AC53: MERMUC bait protein, 53 amino acids deleted from the C-terminus of C260; amino acids 244-450 of SEQ ID NO: 10 (protein, listed as Homo sapiens)
chain: VKASSTSDPPALPDSTEAKPHITEVTASAETLSTAGTTESAAPHATVGTPLPTNSATEREVTAPGATTLSGALVTVSRNPLEETSALSVETPSYVKVSGAAPVSIEAGSAVGKTTSFAGSSASSYSPSEAALKNFTPSETPTMDIATKGPFPTSRDPLPSVPPTTTNSSRGTNSTLAKITTSAKTTMKPPTATPTTARTRPTTDVSA
binding activity to the HGF receptor c-Met β chain [2]: completely lost the binding activity

B5: clone No. 2-22: prey protein: C-terminal 93 amino acids (amino acids 411-503 of SEQ ID NO: 10) of human MERMUC (protein, listed as Homo sapiens)
chain: SSRGTNSTLAKITTSAKTTMKPPTATPTTARTRPTTDVSAGENGGFLLLRLSVASPEDLTDPRVAERLMQQLHRELHAHAPHFQVSLLRVRRG
binding ability to the protein derived from bait-2 [1]: had binding ability
